The series can be described thus: protease stability score; higher = more stable; yeast display proteolysis, trypsin and chymotrypsin.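 Note: relative to predicted unfolded state with 0 unfolded-like and 1 meaning tenfold more protease.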
Sequence “SEDREQVHRFFEQFSRDTLTGNEERNFEMADPHTRFDIDGRIIIGRDIILHHWKEEMRKHGAEMKIHIHHVRVQGDKATVDLRVEIHINGRTYEYKVVMIVEKIDGRWVLTQIKYE” registered a protease stability score of 0.365.

For the sequence “SEDRESAKWFVEMELELFLTGDFEKRLHLADPNAKIRIEINGRKHSTHGMREFLEHLLRLGIDVSHVDHIQVENYNGKLEMNLNLDIRIDGQRRHVEIHIIVDKFDGRWVLRELKVNIR”, the protease stability score is 0.642.

For “SEDRKFIKEMFEETFRRWETGDEDHIRRYVDPHTKLRILIDGREHTHHGREEFTKMMIDLSEQLGIKHLHIENLHIQGDKAELRGREEVGDKDEHVTIIAHKVNGQWTIETLHIEVR”, the protease stability score is -0.376.

Turning to “SEDRKLAEILVKITMDILHTGDEEEWLKLLDPHTRIDFDGRDMHGREFFMKVFRDWGIDNIEVHLHDVKVQGDFLDINVSVHINGRKIDHRLIVEKIDGRWIIREFEVR”, the protease stability score amounted to 1.58.

Consider “SEDRQIAEQIVEDLSTSTVTGDWRLILELLDPDTRIVVDGVDLHGREEFLRFFERIDHMRARRTRLSDFRSYGDKVEADVDIKMEYIVDGRNITERFKERFIIIKVNGRWIVKEWRLK”, for which the protease stability score came to 2.61.

“SEDSEDAKKVVEISIHTVVTGDEHTNTRLFDPHVRIEIGDKEIHGREKFVHIIRHWRMEAHVEVDEVKRQGDKVRVDGHVRIILDINGRKIDIESQVDVNILKVNGRWLIESEHIH”: the protease stability score turned out to be 1.08.

“SEDSEHAVEYMRLLRESMHTGDEKSWEDMMDPNMRILINGKDLIGWEEFSEFLRRFDHWEIRHVEIKDTKLINGRIELKGRMDIRLTINGKETSHVRNVHILSLKVNGRWILKSIEIE” registered a protease stability score of 1.34.

In the case of “SEDSEQALTIIEQLTKNLATGDEDTAEELVDPNVRINIGDKTIHGMHELSRFLLELRSEHRSHIRDVRVQGDKINVEGEDEIIIQVNGQEIRIRKHVHWIIDKIDGVWFVRSVNIH”, the protease stability score amounted to 1.89.

As to “SEDSERAREVWEDLFKAILTGDEDLLRELVDPNVRLEIGDKELVGWEHMIYHLRDHLRRYKNMRLELRIRHVEHQGDKLHLNVLLILIQGDKRIEFEVEVLIEKVNGRWILKEIRIK”, the protease stability score was found to be 1.38.

The sequence “SEDTATAHLMVEYFTKSVHTGDEHTTKRQVDPTMRFDFNGKQIIGREKWKEDLLHWRMETTSHVDDFKLQGDKVRSRTTLHMILHFDGVVYHNTYDTEIIYHKVDGRWYFTEFHVR” yielded a protease stability score of 1.14.

In turn, “SEDTEKIRKFEELLIRLLETGDFDTLTRLLDPHVRYVYNGQDFHGWEFLLHYLRELGVKHFHFRDFRIQGDWAHIDSEVVVGDKHYKTRIVLLKFDGRWRLHMIEVV” had a protease stability score of 2.44.

With “SEDTEMVRIVLEHIEHVWRTGDEHTLRELMDPHVRMDINGREHHGREHVSEIFEQEMRELGADHFRIDHKHVRIINGRIILYLRVKTHIGEKRLDIEIIIILSKVDGRWFIKEISIRHI”, the protease stability score is 1.11.

Sequence “SEDTRIAEELWRIMMDADRTGDEDRSKEMIDPNTQFIFNGRDVIGREVWAELFLRIDHIHLRDVEIHDSEVFNGKIHIDGHVDQEIRIGDKTLVEKVKVELIVLKINGKWLLKEVRFH” registered a protease stability score of 1.35.

Turning to “SEDTRLKEEFLRRVLESEHTGDFESLQEMLDPNTRIEFNGQELIGREEAERILHQARIHDVKIKSMRLIDGRIELNGVLDGNFNGRRRHLEVRIYITKIDGRWVLESIEIE”, the protease stability score was found to be 1.49.

The sequence “SEDVEFIVRFIERFWHLLLTGNEEEFEKLLDPHVRIEINGVNLVGREEVTDWFKHIRIDDMRMIFRHSSVVDGRVNVIGALRRDGHINGQRVTEERDTRLHLYKVNGQWFLTEIELH” came in with a protease stability score of 1.5.

“SEDVERVRHSIIVWLHILLTGDEETISKYADPNARYVQGDKHHHGMEYIAIKIRELRWSVTMEIEHMHVVDGRAHIEGRLILRIHINGKEDVEDHELELHMIKVDGKWILHEIKIK” yielded a protease stability score of 1.59.

As for “SEDVRDAHEMARIFLEVFRTGNEHHHERMMDPHARVRFDGVDHHGREESTKLLLELWRRVDHLHMDITDLRVQGDKVEVHIRLENRYNGRTHIIHVHLVMIKVDGRWVIREIHFD”, the protease stability score was found to be 0.752.

“SEEDDDSREVLELFVRLMVTGDFHELAELLDPNVRTHINGKERVGREQMIKILKRLFDEWGVDRVIVHVKHIDVQGEKAHMDGTLIYGDKMQKSHVTLIYVNGRLERIHIELN” came in with a protease stability score of 1.13.
